This is an account of results in the DeepSol protein solubility set.

This data set is described as follows: soluble on expression in E. coli; label from the status in PepcDB or PDB records.
“MAHHHHHHMVRRLEGNPVPTIGIIFMLHAHRTAHLKYYQSMSLFAIENVDVVWGAAGYSILKQTQGAWMALYDEAYVSENKVMPFGYLVQNGVLMPTSDPCNAANTLAGDGSATAKKWGGTSQQKHRYAYEADVVPRRSCIKARTRSADNSGRRVTFCSGDTEFGVF”: the “soluble on expression in E. coli” value was “not soluble”. On to “HHHHHGSIMKVLRKGDRGDEVCQLQTLLNLCGYDVGKPDGIFGNNTFNQVVKFQKDNCLDSDGIVGKNTWAELFSKYSPPIPYKTIPMPTANKSRAAATPVMNAVENATGVRSQLLLTFASIESAFDYEIKAKTSSATGWFQFLTGTWKTMIENYGMKYGVLTDPTGALRKDPRISALMGAELIKENMNILRPVLKREPTDTDLYLAHFFGPGAARRFLTTGQNELAATHFPKEAQANPSIFYNKDGSPKTIQEVYNLMDGKVAAHRK”, for which the “soluble on expression in E. coli” value is “soluble”. To “MGSSESIVKLNVGGTVFVTLKSTLTKHHGIFKALVKTEMPAEDGDSFFIDRSPKHFETVLNYIRSGDVDLPDSENELKELKREAEYYSLEKLATLCQSSMPKIKSYKTADELLNMIANTKKVVVVIHYLAYKNQLHTIPLGFKFSEFVERNKDKAEVFIYEIKDEEELKDKPYVDDPNRVWSFCIFNSEWSENYPLKSLRDIQVQLDCFGDF” belongs “not soluble”; to “MDIISLRKSPQYLEEAIAYFQRKWADENSRMVYDNCFRTCLESESPLPQWYLLINGEGEIIGCAGLATNDFNSRMDLYPWLVALFIEEQYRGHNYGNLLIKAVEEDTRRLGFGNLYLCTTHTGYYEHFNFVYIGDCYHPWGEHTRVYQKEI”, “soluble”. To “MYQAIAQAIIKSIMADEYPTKLPTEKVLMAQYNASRNTIRKAIDVVFRHGLLRRVQGSGNFIIKQPQNTKKVLNLSIGFDQSAMVDGGPLVSKVVTFDKVTADETLAQQGNIALGDEVYRVVRLRYLNDILYDLEESYFPRTVVPFLSSESVQHSIFAFLREAYGITGSTTENYVHQVRVDAQRAELIGCPDGDKTLCLEAINYLANGTVFNFSRTFFVYPDLELYYHTENIDLQN” belongs “not soluble”; to “MGSSHHHHHHSSGRENLYFQGMTKSKNNPGRGNTIRESNTMKVMEEIREKIRKAIKEGVSLREIEEIILQEAMMEEREAYLEVEDDHKNGTYFRYLGTGDGVLRLRVPRTRKGGFRPKILPEKYERTSPDYEDFLQQLVLSGMTPSQVKAVLAAKGIPYSEIVMNRVAERISNKLKEYKSRELPHDLLALYIDVKIVKVRISESIMERAIYIAIGVDLEGNKFVLDYEVRDREDLDGWKSFLSGLVSRGVSRVDVIVSDDFSGLDRVVSTLFPSSQHQLCITHMVRNLMRVLPDKEKEELMIRVRDLKSSRNVEEGRKAILSLSQLVQPFSPARAKRLLDAADKYCSFLNFPREIRHYLYTNNTSESFNLTLARFEEELGGYFPSLRSLEVYLYVSIHESNSRWKFRPMSVIRHYSYHLKQLHASRFQVSLDEDF”, “soluble”; to “MGSSHHHHHHSSGLVPRGSHMYHHYHAFQGRKLTDQERARVLEFQDSIHYSPRYSDDNYEYRHVMLPKAMLKVIPSDYFNSEVGTLRILTEDEWRGLGITQSLGWEHYECHAPEPHILLFKRPLNYEAELRAATAAAQQQQQQQQQQQQQQQQHQTQSISNDMQVPPQIS”, “soluble”.

Regarding “MGLLIDGVWHDQWYDTKSTGGSFKRQDAKFRNWITHDGSAGPSGTGGFTPDSGRYHLYISHACPWAHRTMIFRTLKGLEDHITISAVHPDMLGEGWTFEPDDNGATGDTLYNSAFARDIYTRADPRFTGRVTVPILWDKQRETIVSNESSEIIRMFNAAFNGLTGNSDDYWPEPLRDAIAPVNERIYDTFNNGVYKAGFATTQQAYDAAIVPLFDTLDWLEERLSHNRYLMGDQLTEADWRLFTTLVRFDPVYHLHFKCNRKRIVDYPNLWGYTRELYQTPGVADTVNFDHIVRHYHYSHETINPNRIIPINPVLDFHRPHGRGLEHHHHHH”, the “soluble on expression in E. coli” value was “soluble”. In the case of “MSLKAIAVDMDGTFLDSKKTYDKPRFEAIFTELRNRDITFIAASGNQYAKLKSIFGDRDMYFISENGAVIYKGNELYNYKSFNRQVFQQVVDYLNMNQSIDQLVICGLKSAYILKHTSEAFKEDTRFYYHQLKEIDSLQQLPEDDYVKIAFNINRETHPNVDEEVATQFSNDIKLVSSGHDSIDIIMPNMTKGQALKRLLDKWEMSPSELMAFGDANNDKDMLAFAKHSYVMENSHDEELFNIASAVAPSNDKQGVLTIIEQEVLNKEGHHHHHH” it was “soluble”; in that of “MSLQRVQIMGAGALGSLVGALIQLAGYDVIFVARGKQLEALKKGLRVSGLKNAELKVYCTSQPEDADITFVTVKAYDTETVAKKLAEVDAGVVCSLQNGVGNEEILAKYCRKVLGGVTTYGANLKDYGHVVYAGEGYTYVGEMDGRVSGEAEMVAEVLRDAGMRAEAVNDIEFRIWAKAVVNAAINPITAICRVKNGEVVRNPHLWEVARAVADEGRQVMARMGYEFDAASEVRKVAEMTAENRSSMLQDLERGKRTEVEFINGAIVKKGEEFGIDCAVNRTLLNLVRGVESGEGHHHHHH”, “soluble”. For the sequence “DGSFQGSVFVAVDIGERKRTEQALRENEQHLKNILDSIHAGILVIDPQDHRIVDANTFALDMIGAPKGLVVDRICHNFVCSAVQGACPITDLLENMDNSERRLLRFDGTSIPILKSVVPVTYQGRKLLIESFID”, the “soluble on expression in E. coli” value was “not soluble”. On to “EQTALKKVAEMARLADSYVSAWGDEAKVSDETLRRLLTSLGYDTSSDEKLLASAEKKHKKDVLAPVLVLRDGEPVEVELNLGTSARESEFSWRLETEQGEVLEGYLQSQIVRDERAEGGPLVFALPKNLAWGYHKLIISRKRRKTPYEMSLIITPKACFKQEDLNQ”, for which the “soluble on expression in E. coli” value is reported as “not soluble”.

On to “MKERVIITGANGQLGKQLQEELNPEEYDIYPFDKKLLDITNISQVQQVVQEIRPHIIIHCAAYTKVDQAEKERDLAYVINAIGARNVAVASQLVGAKLVYISTDYVFQGDRPEGYDEFHNPAPINIYGASKYAGEQFVKELHNKYFIVRTSWLYGKYGNNFVKTMIRLGKEREEISVVADQIGSPTYVADLNVMINKLIHTSLYGTYHVSNTGSCSWFEFAKKIFSYANMKVNVLPVSTEEFGAAAARPKYSIFQHNMLRLNGFLQMPSWEEGLERFFIETKSH”, for which the “soluble on expression in E. coli” value is listed as “not soluble”. “MRGSHHHHHHGSENLYFQSGAMEIREQLNLGGIVNAQNAQLSNCSDGAAQLESCGTAPDLKGITGWLNTPGNKPIDLKSLRGKVVLIDFWAYSCINCQRAIPHVVGWYQAYKDSGLAVIGVHTPEYAFEKVPGNVAKGAANLGISYPIALDNNYATWTNYRNRYWPAEYLIDATGTVRHIKFGEGDYNVTETLVRQLLNDAKPGVKLPQPSSTTTPDLTPRAALTPETYFGVGKVVNYGGGGAYDEGSAVFDYPPSLAANSFALRGRWALDYQGATSDGNDAAIKLNYHAKDVYIVVGGTGTLTVVRDGKPATLPISGPPTTHQVVAGYRLASETLEVRPSKGLQVFSFTYG”: the “soluble on expression in E. coli” value was “soluble”.

Turning to “GSSHHHHHHSSGLVPRGSHMGSIIDAAAAAGPVVLMETAFRKAVESRQIPGAVIMARDASGNLNYTRCFGARTVRRDENNQLPPLQVDTPCRLASATKLLTTIMVLQCMERGLVDLDETVDRLLPDLSAMPVLEGFDDAGNARLRERRGKITLRHLLTHTSGLSYVFLHPLLREYMAQGYLQSAEKFGIQSRLAPPAVNDPGAEWIYGTNLDWAGKLVERATGLDLEQYLQENICAPLGITDMTFKLQQRPDMLARRADQTHRNSADGRLRYDDSVYFRADGEECFGGQGVFSSPGSYMKVLHSLLKRDGLLLQPQTVDLMFQPALEPRLEEQMNQHMDASPHINYGGPMPMVLRRSFGLGGIIALEDLDGENWRRKGSLTFGGGPNIVWQIDPKAGLCTLAFFQLEPWNDPVCRDLTRTFEHAIYAQYQQG”, the “soluble on expression in E. coli” value was “soluble”. To “MPHPKLTPKCEAPPEKRLAHLEIRFKDRRHIIPPLFHNGWVGRNEDRTLLNDTIIEFYMCDWMRLEVFDEATRASSHVFHSFFLPKIKTCFKDFKENPPRRSELANHYNRFFRSKNDAETFLKKDILLIPVHLDKPKHWFLVIVHNPSGAVRRISDVNILDATNKVKSRRLSRRITGHVNCDENAGECRIIIMDSLVHSKKYREVIDKTHDSTFDHIRLWLLMSAAATDVDMFCTRFRKVVCQKLPQQKNSVDCGIFMMAFAEYFTKYNTAWQSLPTDALADLKMDDDIKSLLNSETPRQRLDELFQSLKA” belongs “not soluble”; to “MADDEDDIVWIREDTAQSSVPTSPTTPATIIEAAPVLSDAFDKPILKSVETISVSNGPPEVTISAPPPTPPAAPLAPQITPMVLSTVPDAAPAQDIPALILAALAPEPVPEPEPEVEAKQNVIVEKENEIKDQQQNDQLSAKLDPKTPNSVDDNSMSFDISECERKFNTAIREANDILEDFDKKSKQVAENTKFVAKELAELAADAPRVFQKTIEDHSQVPEISELPSGGLPKNVESVLIGEGILEEITGTLVLPTGQVLVTDERVGILLFNLEGDVLAKINPADFRKLWSPVYHKEHILVLADAKNAENHWSRHVIKFTCQLEYVAKIECPSWLAECTILRERLSIAHNDHLYLCVCGEIFSGIYELTPIGQWTELEYKLSEAYIDMLAFATIGPITQLLVVEGRRNYVLLVSVRESRIVDRKRMAICERPGALAKDEAGRLFVSNRFSASIQLVDTMRWVSEKNVAITEAFVRHFTACWGLLAIPLKNAVRLQRYSFRSLR”, “not soluble”; to “MKHSHLYELQPDPYDFTQRKTCRVCLFKDVKNAAELSQQLKEGKIDAALIRAELVLEPFVLLAAANRAVHQSAHNRMSCRSLAAELVYSLSPSRNITDSLVTFGIAEHSTAIIAAIFDDDSGKAMKKLAKAIKGTPVPLMEGLPKFANVNMIKKVYQVGNPAFVEEGLSDHIVSRMVSKDFVS”, “not soluble”.

In the case of “MTIKSDKWIRRMAQEHGMIEPFVERQVRGADDSRVISYGVSSYGYDVRCAAEFKVFTNIHSAVVDPKNFDEKSFVDINSDVCIIPPNSFALARTVEYFRIPRDVLTICLGKSTYARCGIIVNVTPLEPEWEGHVTLEFSNTTNLPAKIYANEGVAQMLFLQSDEACEVSYKDRGGKYQGQR”, the “soluble on expression in E. coli” value is “soluble”.

In the case of “NTKPENDLERAKRKNERAKARCVGITFETRPDYAREEHIREMLRFGGTKVELGVQSLYDDVLERIKRGHGVKEVAEATRLLRDSAFKVGYHIMPGLPGSSFERDLRMFRELFENDSFKPDYLKIYPTLVVEGTELYEMWKRGEYEPYTTEEVVELIVMAKRRFPE”, the “soluble on expression in E. coli” value is “not soluble”.

As for “MEYMVLIYRDEAFAPEYGSPEWEQMMGGFLAFNQRLIDGGHWIAGGGLQTTPSATTVRLAAGTVPKVLDGPYAETKEQLGGFYLVRADTLDEVLDLARSLPIEGAIEVRPLTYRPTGE”, the “soluble on expression in E. coli” value is on record as “not soluble”. In the case of “LRSAARTLYTWTLPNEYELIDVREPHEIEHTPSGAHITLPQSMWNDTTAIQHALDNITTDNVVVVCASGIRSAAFIEQFAHLNPHLTFHNVPSGINELP” it was “not soluble”; in that of “SDNDLKLLALESETIRSVADLHNKRVGMIRASASEFYFDSLLLANNLKGIPIDKVYGTADQLYQQLFDKQLDAISIWEPWGYKIGVAAESKVTNLSLPGIYTLSFNLLTMKPTTEEEKQRSLAILKA”, “not soluble”. In the case of “MKDGMRVGERFTHDFVVPPHKTVRHLYPESPEFAEFPEVFATGFMVGLMEWACVRAMAPYLEPGEGSLGTAICVTHTAATPPGLTVTVTAELRSVEGRRLSWRVSAHDGVDEIGSGTHERAVIHLEKFNAKVRQKTPAG” it was “soluble”; in that of “LFRRWVIYIIRLYQRWISPLKTMPSCRFYPTCSQYAIDAVGRYGVIKGGFMALKRILKCHPFHPGGYDPVK”, “soluble”.
